Data as given in US20050282743A1, “Molecular interactions in cells” (Arbor Vita Corporation, priority 2001, published 2005).
Ends that are not written are not given here. Peptide text beside a SMILES is read from it. * marks the point of attachment. Biotin = O=C1N[C@H]2[C@H](CS[C@H]2CCCCC(=O)*)N1

Assays:
Test in all cases: G' assay (10 uM PL peptide), results of TABLE 7 and TABLE 12
Format in all cases: binding
[1] = biological target: T1, PDZ protein (GST-PDZ fusion) (Homo sapiens, UniProt Q5T2W1)
T1 construct: made in house; host or cells: E. coli (DH5alpha, BL21 or JM109)
T1 sequence (Q5T2W1 1-519): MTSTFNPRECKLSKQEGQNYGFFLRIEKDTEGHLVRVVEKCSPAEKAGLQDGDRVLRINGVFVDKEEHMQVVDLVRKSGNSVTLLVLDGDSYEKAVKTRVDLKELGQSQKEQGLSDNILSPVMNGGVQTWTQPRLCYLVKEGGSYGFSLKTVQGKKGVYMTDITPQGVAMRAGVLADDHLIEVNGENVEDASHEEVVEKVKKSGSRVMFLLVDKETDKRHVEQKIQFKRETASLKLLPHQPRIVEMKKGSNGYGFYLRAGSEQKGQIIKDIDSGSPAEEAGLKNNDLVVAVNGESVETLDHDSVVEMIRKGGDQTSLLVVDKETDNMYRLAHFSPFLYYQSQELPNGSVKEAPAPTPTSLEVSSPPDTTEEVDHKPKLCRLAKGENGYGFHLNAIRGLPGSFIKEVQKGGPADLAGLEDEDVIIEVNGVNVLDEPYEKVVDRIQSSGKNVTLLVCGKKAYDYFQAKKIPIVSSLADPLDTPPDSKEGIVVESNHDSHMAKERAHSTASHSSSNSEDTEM
Method in brief: (§1)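 Biotin-PL peptide (N-term label), 10 uM vs GST-PDZ; protein 5 ug/ml by default. A450 nm binned: 1 = 0-1, 2 = 1-2, 3 = 2-3, 4 = 3-4, 5 = >4 on >2 repeats, 0 = no binding.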

[2] = biological target: T2, PDZ protein (GST-PDZ fusion) (Homo sapiens, UniProt Q9Y2H9); conditions: PDZ KIAA0973, PDZ Domain 1
T2 construct: made in house; host or cells: E. coli (DH5alpha, BL21 or JM109)
T2 sequence (Q9Y2H9 whole entry, the tested form may be a part): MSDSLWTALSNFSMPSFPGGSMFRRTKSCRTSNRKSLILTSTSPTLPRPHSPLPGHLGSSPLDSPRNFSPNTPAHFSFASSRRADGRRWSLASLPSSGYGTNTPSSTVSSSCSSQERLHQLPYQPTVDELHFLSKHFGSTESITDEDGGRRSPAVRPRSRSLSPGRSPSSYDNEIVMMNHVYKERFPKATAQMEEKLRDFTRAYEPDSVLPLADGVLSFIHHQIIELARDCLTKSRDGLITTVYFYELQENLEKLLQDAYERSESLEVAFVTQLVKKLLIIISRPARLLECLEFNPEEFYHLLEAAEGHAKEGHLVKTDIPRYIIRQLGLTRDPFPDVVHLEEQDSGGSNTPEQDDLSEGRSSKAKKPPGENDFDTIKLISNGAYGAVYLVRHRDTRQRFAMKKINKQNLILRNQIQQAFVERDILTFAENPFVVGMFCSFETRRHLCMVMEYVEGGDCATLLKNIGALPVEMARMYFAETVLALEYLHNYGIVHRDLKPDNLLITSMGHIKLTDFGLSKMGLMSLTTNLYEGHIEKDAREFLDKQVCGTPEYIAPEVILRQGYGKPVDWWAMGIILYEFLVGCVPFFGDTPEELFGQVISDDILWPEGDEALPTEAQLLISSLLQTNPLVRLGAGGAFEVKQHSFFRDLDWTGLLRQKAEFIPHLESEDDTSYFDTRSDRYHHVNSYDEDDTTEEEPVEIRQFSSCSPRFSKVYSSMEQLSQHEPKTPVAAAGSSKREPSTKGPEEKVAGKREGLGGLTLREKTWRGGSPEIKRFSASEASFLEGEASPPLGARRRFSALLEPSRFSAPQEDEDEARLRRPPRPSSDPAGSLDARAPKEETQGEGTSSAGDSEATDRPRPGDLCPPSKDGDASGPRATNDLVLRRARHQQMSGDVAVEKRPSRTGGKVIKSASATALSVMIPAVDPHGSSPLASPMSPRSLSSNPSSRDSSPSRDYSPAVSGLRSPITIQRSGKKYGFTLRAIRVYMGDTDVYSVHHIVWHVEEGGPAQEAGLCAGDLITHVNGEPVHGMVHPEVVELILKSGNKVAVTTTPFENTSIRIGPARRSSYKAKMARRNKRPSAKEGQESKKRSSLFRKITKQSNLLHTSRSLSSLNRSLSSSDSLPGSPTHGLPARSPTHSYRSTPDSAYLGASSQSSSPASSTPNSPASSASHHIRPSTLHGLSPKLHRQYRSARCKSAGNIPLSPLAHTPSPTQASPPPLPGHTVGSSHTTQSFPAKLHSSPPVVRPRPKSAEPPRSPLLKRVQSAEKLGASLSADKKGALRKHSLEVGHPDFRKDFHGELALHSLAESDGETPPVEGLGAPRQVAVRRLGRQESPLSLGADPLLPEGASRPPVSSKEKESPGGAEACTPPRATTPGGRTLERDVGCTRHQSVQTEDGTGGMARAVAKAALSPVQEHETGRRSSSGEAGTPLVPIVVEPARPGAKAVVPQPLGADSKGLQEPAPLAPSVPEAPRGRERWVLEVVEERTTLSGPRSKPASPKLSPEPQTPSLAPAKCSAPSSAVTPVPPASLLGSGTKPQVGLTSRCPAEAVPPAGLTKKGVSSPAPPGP
Method in brief: as §1

[3] = biological target: T3, PDZ protein (GST-PDZ fusion) (Homo sapiens, UniProt Q96JY6); conditions: PDZ LIM-Mystique, PDZ Domain 1
T3 construct: made in house; host or cells: E. coli (DH5alpha, BL21 or JM109)
T3 sequence (Q96JY6 1-352): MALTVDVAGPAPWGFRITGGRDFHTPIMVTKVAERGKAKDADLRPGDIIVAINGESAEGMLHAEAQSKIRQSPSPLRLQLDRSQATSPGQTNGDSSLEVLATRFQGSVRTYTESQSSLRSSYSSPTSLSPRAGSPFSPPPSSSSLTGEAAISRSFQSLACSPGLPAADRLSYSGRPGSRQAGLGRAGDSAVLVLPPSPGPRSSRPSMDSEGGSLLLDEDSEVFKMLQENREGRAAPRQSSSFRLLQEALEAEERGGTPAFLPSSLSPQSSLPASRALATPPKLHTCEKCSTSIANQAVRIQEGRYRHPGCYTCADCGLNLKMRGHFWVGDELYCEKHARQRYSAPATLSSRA
Method in brief: as §1

[4] = biological target: T4, PDZ protein (GST-PDZ fusion) (Homo sapiens, UniProt O14745)
T4 construct: made in house; host or cells: E. coli (DH5alpha, BL21 or JM109)
T4 sequence (O14745 1-358): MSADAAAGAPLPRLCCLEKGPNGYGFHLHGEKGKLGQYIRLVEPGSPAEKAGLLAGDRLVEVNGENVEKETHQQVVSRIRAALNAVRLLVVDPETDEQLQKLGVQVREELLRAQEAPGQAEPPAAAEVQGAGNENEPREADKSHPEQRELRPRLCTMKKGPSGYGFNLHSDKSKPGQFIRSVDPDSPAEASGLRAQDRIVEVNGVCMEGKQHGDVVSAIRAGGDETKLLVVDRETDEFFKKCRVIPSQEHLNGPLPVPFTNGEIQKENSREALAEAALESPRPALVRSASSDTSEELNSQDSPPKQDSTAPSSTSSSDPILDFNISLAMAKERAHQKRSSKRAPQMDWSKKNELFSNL
Method in brief: as §1

[5] = biological target: T5, PDZ protein (GST-PDZ fusion) (Homo sapiens, UniProt P29475); conditions: PDZ NOS1, PDZ Domain 1; PL peptide 10 uM
T5 construct: made in house; host or cells: E. coli (DH5alpha, BL21 or JM109)
T5 sequence (P29475 whole entry, the tested form may be a part): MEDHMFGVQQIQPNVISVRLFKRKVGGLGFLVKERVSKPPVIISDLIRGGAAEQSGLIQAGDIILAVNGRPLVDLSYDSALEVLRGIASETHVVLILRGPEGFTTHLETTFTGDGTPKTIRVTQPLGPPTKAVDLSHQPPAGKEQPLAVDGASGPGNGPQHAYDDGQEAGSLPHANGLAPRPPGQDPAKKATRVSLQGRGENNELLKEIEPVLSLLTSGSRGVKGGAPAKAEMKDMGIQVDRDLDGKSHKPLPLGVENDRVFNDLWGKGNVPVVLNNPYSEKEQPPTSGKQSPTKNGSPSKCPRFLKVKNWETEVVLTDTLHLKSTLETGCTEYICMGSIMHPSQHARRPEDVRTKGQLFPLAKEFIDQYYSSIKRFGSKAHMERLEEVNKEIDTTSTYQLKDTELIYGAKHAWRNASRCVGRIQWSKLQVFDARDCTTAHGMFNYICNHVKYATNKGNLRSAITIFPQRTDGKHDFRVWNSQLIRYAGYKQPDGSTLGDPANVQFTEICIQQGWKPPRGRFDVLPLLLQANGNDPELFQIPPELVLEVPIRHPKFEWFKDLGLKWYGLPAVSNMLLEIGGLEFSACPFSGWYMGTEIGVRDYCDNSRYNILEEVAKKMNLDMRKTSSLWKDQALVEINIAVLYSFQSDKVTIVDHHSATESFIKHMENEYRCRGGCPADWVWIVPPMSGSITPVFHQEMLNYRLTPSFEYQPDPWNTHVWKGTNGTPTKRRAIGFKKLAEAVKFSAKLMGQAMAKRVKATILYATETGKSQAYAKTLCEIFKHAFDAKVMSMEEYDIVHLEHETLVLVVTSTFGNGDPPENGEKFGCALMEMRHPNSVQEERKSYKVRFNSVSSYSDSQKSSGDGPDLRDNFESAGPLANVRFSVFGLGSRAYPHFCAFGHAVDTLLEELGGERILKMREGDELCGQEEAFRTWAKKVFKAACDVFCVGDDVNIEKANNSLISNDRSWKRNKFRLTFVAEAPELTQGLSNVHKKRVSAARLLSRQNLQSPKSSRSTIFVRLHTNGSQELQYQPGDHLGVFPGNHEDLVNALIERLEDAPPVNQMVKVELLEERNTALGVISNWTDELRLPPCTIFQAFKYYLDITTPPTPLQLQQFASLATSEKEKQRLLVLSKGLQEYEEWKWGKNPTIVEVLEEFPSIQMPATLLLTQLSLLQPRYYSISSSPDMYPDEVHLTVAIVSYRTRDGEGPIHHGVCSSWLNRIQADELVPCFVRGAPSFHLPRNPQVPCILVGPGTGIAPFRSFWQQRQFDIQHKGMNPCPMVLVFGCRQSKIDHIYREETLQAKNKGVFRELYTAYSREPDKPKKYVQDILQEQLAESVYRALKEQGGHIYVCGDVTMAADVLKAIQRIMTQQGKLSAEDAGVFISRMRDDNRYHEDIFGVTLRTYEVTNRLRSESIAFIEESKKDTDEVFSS
Method in brief: as §1

Compound	Classification ([1]; PDZ PDZK1, PDZ Domain 2, 3, 4)	Classification [2]	Classification [3]	further results
CC[C@H](C)[C@H](NC(=O)[C@H](CO)NC(=O)[C@H](CCC(=O)O)NC(=O)[C@H](Cc1ccc(O)cc1)NC(=O)[C@H](CC(=O)O)NC(=O)[C@H](CC(N)=O)NC(=O)[C@H](CCC(=O)O)NC(=O)[C@H](CCCCN)NC(=O)CCCC[C@@H]1SC[C@@H]2NC(=O)N[C@@H]21)C(=O)N[C@@H](CO)C(=O)N[C@@H](CC(=O)O)C(=O)N[C@@H](CC(C)C)C(=O)N[C@@H](CCC(N)=O)C(=O)N[C@@H](CCC(N)=O)C(=O)NCC(=O)N[C@@H](CCCNC(=N)N)C(=O)N[C@@H](CC(=O)O)C(=O)N[C@H](C(=O)N[C@H](C(=O)N[C@@H](CCCNC(=N)N)C(=O)N[C@@H](CC(C)C)C(=O)O)[C@@H](C)O)[C@@H](C)CC [PAG] (Biotin-KENDYESISDLQQGRDITRL-OH; C-terminus assumed)	1 (A450 nm 0-1)			
CC(C)C[C@H](NC(=O)[C@H](CCCNC(=N)N)NC(=O)CNC(=O)CNC(=O)[C@H](CCCNC(=N)N)NC(=O)[C@H](C)NC(=O)[C@@H]1CCCN1C(=O)[C@H](CCCNC(=N)N)NC(=O)CNC(=O)CNC(=O)[C@@H](NC(=O)[C@H](C)NC(=O)CCCC[C@@H]1SC[C@@H]2NC(=O)N[C@@H]21)C(C)C)C(=O)N[C@@H](CCC(N)=O)C(=O)NCC(=O)N[C@@H](CCCNC(=N)N)C(=O)N[C@@H](CCCNC(=N)N)C(=O)N[C@@H](CCC(N)=O)C(=O)N[C@H](C(=O)N[C@@H](CCC(N)=O)C(=O)N[C@H](C(=O)O)C(C)C)[C@@H](C)O [HPV E6 58 (modified)] (Biotin-AVGGRPARGGRLQGRRQTQV-OH; C-terminus assumed)	1 (A450 nm 0-1)	2 (A450 nm 1-2)		
LASKSAEEGKQIPDSLSTDL (Biotin-LASKSAEEGKQIPDSLSTDL) [Dock2]			1 (A450 nm 0-1)	Classification ([4]; PDZ EBP50, PDZ Domain 1): 1 (A450 nm 0-1); Classification ([4]; PDZ EBP50, PDZ Domain 2): 2 (A450 nm 1-2)
KTMPAATYRLLTGQEQPVYL (Biotin-KTMPAATYRLLTGQEQPVYL) [MINT-3]		2 (A450 nm 1-2)		
A2AC_HUMAN (Modified) (Biotin-DFRPSFKHILFRRARRGFRQ; not fully specified)		3 (A450 nm 2-3)		
CC[C@H](C)[C@H](NC(=O)CNC(=O)[C@H](CO)NC(=O)[C@H](Cc1ccccc1)NC(=O)[C@@H](NC(=O)[C@H](CS)NC(=O)CNC(=O)CNC(=O)[C@H](C)NC(=O)[C@@H]1CCCN1C(=O)[C@@H](NC(=O)[C@@H]1CCCN1C(=O)CCCC[C@@H]1SC[C@@H]2NC(=O)N[C@@H]21)[C@@H](C)CC)[C@@H](C)O)C(=O)N[C@@H](Cc1ccccc1)C(=O)N1CCC[C@H]1C(=O)N[C@H](C(=O)N[C@@H](CC(C)C)C(=O)N[C@H](C(=O)N[C@@H](CO)C(=O)N1CCC[C@H]1C(=O)N[C@@H](CC(C)C)C(=O)O)[C@@H](C)O)[C@@H](C)O [KIA 1481] (Biotin-PIPAGGCTFSGIFPTLTSPL-OH; C-terminus assumed)	2 (A450 nm 1-2)	2 (A450 nm 1-2)		Classification ([4]; PDZ EBP50, PDZ Domain 1): 2 (A450 nm 1-2); Classification ([4]; PDZ EBP50, PDZ Domain 2): 2 (A450 nm 1-2)
CC[C@H](C)[C@H](NC(=O)[C@H](CCCCN)NC(=O)[C@@H](NC(=O)[C@H](CO)NC(=O)[C@@H]1CCCN1C(=O)[C@H](Cc1ccccc1)NC(=O)[C@@H](NC(=O)[C@@H](NC(=O)[C@H](CCCNC(=N)N)NC(=O)[C@H](CCC(=O)O)NC(=O)[C@H](CC(C)C)NC(=O)[C@H](CC(C)C)NC(=O)[C@H](CC(C)C)NC(=O)[C@@H](NC(=O)CNC(=O)[C@@H](NC(=O)CCCC[C@@H]1SC[C@@H]2NC(=O)N[C@@H]21)C(C)C)[C@@H](C)O)C(C)C)[C@@H](C)CC)C(C)C)C(=O)N[C@@H](C)C(=O)N[C@H](C(=O)N[C@@H](CC(C)C)C(=O)N[C@H](C(=O)O)C(C)C)[C@@H](C)O [Adenovirus E4 Type9]				Classification [5]: 5 (A450 nm of 4 more than 2× repeated)
ARHRVTSYTSSSVNVSSNL (Biotin-ARHRVTSYTSSSVNVSSNL) [IL-8RB]	1 (A450 nm 0-1)			
PYSELNYETSHYPASPDSWV (Biotin-PYSELNYETSHYPASPDSWV) [catenin - delta 2]			5 (A450 nm of 4 more than 2× repeated)	
ALVLIAFCIIRRRPSAYQAL (Biotin-ALVLIAFCIIRRRPSAYQAL) [CD68]		1 (A450 nm 0-1)		
PPATPSPRLALPAHHNATRL (Biotin-PPATPSPRLALPAHHNATRL) [Na+/Pi cotransporter 2]	1 (A450 nm 0-1)	2 (A450 nm 1-2)		Classification ([4]; PDZ EBP50, PDZ Domain 1): 5 (A450 nm of 4 more than 2× repeated); Classification ([4]; PDZ EBP50, PDZ Domain 2): 2 (A450 nm 1-2)
A2AA_HUMAN (modified) (Biotin-HDFRRAFKKILARGDRKRIV; not fully specified)			1 (A450 nm 0-1)	
CC(C)C[C@H](NC(=O)[C@H](C)NC(=O)[C@@H](NC(=O)[C@H](CCC(=O)O)NC(=O)[C@H](CCCNC(=N)N)NC(=O)[C@H](CCCNC(=N)N)NC(=O)CNC(=O)[C@H](CCC(N)=O)NC(=O)[C@H](CC(C)C)NC(=O)[C@H](CCCNC(=N)N)NC(=O)CNC(=O)CNC(=O)[C@H](CCCNC(=N)N)NC(=O)[C@H](C)NC(=O)[C@H](CO)NC(=O)[C@H](CCCNC(=N)N)NC(=O)CNC(=O)CNC(=O)[C@H](C)NC(=O)[C@H](C)NC(=O)CCCC[C@@H]1SC[C@@H]2NC(=O)N[C@@H]21)[C@@H](C)O)C(=O)O [HPV E6 33 (modified)] (Biotin-AAGGRSARGGRLQGRRETAL-OH; C-terminus assumed)	1 (A450 nm 0-1)			Classification ([4]; PDZ EBP50, PDZ Domain 1): 2 (A450 nm 1-2); Classification ([4]; PDZ EBP50, PDZ Domain 2): 2 (A450 nm 1-2)
KTMPAAMFRLLTGQETPLYI (Biotin-KTMPAAMFRLLTGQETPLYI) [MINT-2]				Classification ([1]; PDZ PDZK-1, PDZ Domain 4): 1 (A450 nm 0-1)
VHDAESSDEDGYDWGPATDL (Biotin-VHDAESSDEDGYDWGPATDL) [zona occludens 3 (ZO-3)]		2 (A450 nm 1-2)	2 (A450 nm 1-2)	
CC(C)C[C@H](NC(=O)[C@H](CC(=O)O)NC(=O)[C@H](CO)NC(=O)[C@H](CCC(=O)O)NC(=O)CNC(=O)[C@H](Cc1ccc(O)cc1)NC(=O)[C@H](CC(C)C)NC(=O)[C@H](C)NC(=O)[C@H](CO)NC(=O)[C@H](CO)NC(=O)[C@H](Cc1ccccc1)NC(=O)[C@H](C)NC(=O)[C@H](C)NC(=O)[C@H](Cc1ccc(O)cc1)NC(=O)[C@H](CC(=O)O)NC(=O)[C@H](CC(C)C)NC(=O)[C@H](C)NC(=O)CNC(=O)[C@@H]1CCCN1C(=O)[C@@H](NC(=O)CCCC[C@@H]1SC[C@@H]2NC(=O)N[C@@H]21)C(C)C)C(=O)O [a-actinin 2] (Biotin-VPGALDYAAFSSALYGESDL-OH; C-terminus assumed)		2 (A450 nm 1-2)	5 (A450 nm of 4 more than 2× repeated)	
CC[C@H](C)[C@H](NC(=O)[C@H](CCC(N)=O)NC(=O)CCCC[C@@H]1SC[C@@H]2NC(=O)N[C@@H]21)C(=O)N[C@@H](CO)C(=O)N1CCC[C@H]1C(=O)NCC(=O)NCC(=O)N[C@@H](CC(C)C)C(=O)N[C@@H](CCC(=O)O)C(=O)N1CCC[C@H]1C(=O)N1CCC[C@H]1C(=O)N[C@@H](CO)C(=O)N[C@@H](CCC(=O)O)C(=O)N[C@@H](CCCCN)C(=O)N[C@@H](Cc1c[nH]cn1)C(=O)N[C@@H](Cc1ccccc1)C(=O)N[C@@H](CCCNC(=N)N)C(=O)N[C@@H](CCC(=O)O)C(=O)N[C@H](C(=O)N[C@@H](CCC(=O)O)C(=O)N[C@H](C(=O)O)C(C)C)[C@@H](C)O [Tax]			1 (A450 nm 0-1)	
